Test results reported in publication PMC6759063 (Oncogene, 2008).

Target: cyclin D1 (human (endogenous in HK18), UniProt P24385 1-295)
Experiment: co-IP

Sequence of cyclin D1 (P24385 whole entry): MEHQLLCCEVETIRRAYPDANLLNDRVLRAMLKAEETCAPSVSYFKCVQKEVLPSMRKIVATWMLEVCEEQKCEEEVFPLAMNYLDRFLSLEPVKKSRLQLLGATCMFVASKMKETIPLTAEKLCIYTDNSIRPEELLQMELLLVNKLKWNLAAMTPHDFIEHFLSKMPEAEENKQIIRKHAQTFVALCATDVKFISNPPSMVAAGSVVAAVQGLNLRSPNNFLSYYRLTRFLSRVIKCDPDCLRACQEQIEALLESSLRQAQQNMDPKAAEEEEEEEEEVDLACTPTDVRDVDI

- fold decrease of the co-precipitated complex after LDIR (densitometry): ~50 times
B1: 14-3-3ζ (natural protein, human (endogenous in HK18), UniProt P63104 1-245, looked up)
chain: MDKNELVQKAKLAEQAERYDDMAACMKSVTEQGAELSNEERNLLSVAYKNVVGARRSSWRVVSSIEQKTEGAEKKQQMAREYREKIETELRDICNDVLSLLEKFLIPNASQAESKVFYLKMKGDYYRYLAEVAAGDDKKGIVDQSQQAYQEAFEISKKEMQPTHPIRLGLALNFSVFYYEILNSPEKACSLAKTAFDEAIAELDTLSEESYKDSTLIMQLLRDNLTLWTSDTQGDEAEAGEGGEN
